Earlier results as cited in patent US5874218.

Tested on: T1, VEGF165 (Homo sapiens), P15692-4
T1 sequence: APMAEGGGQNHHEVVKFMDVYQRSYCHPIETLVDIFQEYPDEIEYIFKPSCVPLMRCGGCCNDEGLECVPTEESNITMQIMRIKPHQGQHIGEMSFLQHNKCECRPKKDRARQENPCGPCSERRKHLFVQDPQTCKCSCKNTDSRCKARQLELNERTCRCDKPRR
Conditions: modified to be nuclease resistant (Green et al. 1995); CITED; value stated for the ligand with reference to Green et al. 1995

NTTTTACCCUGAUGGUAGACGCCGGGGUGTTTTT [NX-244]
Kd: 0.14 nM
